Results taken from PMC5840378, “Cytochrome c speeds up caspase cascade activation by blocking 14-3-3ε-dependent Apaf-1 inhibition” (Cell Death & Disease, 2018).
Residue numbers refer to the chain shown, from its start. In names and notes the source's numbering stands. No end group written: not given here.

T1: 14-3-3ε full length (14-3-3ε FL), recombinant (UniProt P62258 1-255)
T1 construct: 14-3-3ε (14-3-3 protein epsilon), full length, cloned NdeI-XhoI into pET-28a; Homodimer by ultracentrifugation and light scattering; The printed cloning primers seem to add a Met before Met1 and a Glu after the last residue; also called 14-3-3ε FL WT; source: E. coli BL21 (DE3), purified (Ni Sepharose)
T1 sequence (looked up): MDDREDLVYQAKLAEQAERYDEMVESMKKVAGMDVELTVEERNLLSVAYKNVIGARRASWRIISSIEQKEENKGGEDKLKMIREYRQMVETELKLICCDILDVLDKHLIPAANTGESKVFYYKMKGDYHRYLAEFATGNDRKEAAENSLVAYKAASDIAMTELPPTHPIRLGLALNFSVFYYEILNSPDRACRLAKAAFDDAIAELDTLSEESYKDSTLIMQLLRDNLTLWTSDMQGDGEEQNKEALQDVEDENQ

B1: fluorinated 14-3-3ε_(234-255) peptide (Lys244 covalently bound to 5-fluorindole) (peptide, UniProt P62258 234-255, looked up)
peptide: Ac-DMQGDGEEQNK(5‑fluorindole)EALQDVEDENQ
notes: 14-3-3ε, C-terminal tail, residues 234-255; source: acetylated 14-3-3ε_(234-255) peptide conjugated with 5-fluoroindole (formaldehyde, 24 h, 30 °C), dialyzed
B2: cytochrome c (Cc), recombinant (natural protein)
chain: not shown
modifications: heme group; 15N-labelled for the 2D NMR titrations
notes: Met80 is M81 in P99999); Reduced with sodium ascorbate in the NMR experiments; also called hemeprotein; reduced Cc; source: E. coli BL21 (DE3), purified (ionic chromatography, carboxy-methylcellulose)
B3: 14-3-3ε FL D21K (natural protein, UniProt P62258 1-255, looked up)
chain: T1 sequence (looked up) with D21K
notes: 14-3-3ε full length with D21K; source: E. coli BL21 (DE3), purified (Ni Sepharose); mutant obtained from Mutagenex Inc
B4: 14-3-3ε FL S187D (natural protein, UniProt P62258 1-255, looked up)
chain: T1 sequence (looked up) with S187D
notes: 14-3-3ε full length with S187D; source: E. coli BL21 (DE3), purified (Ni Sepharose); mutant obtained from Mutagenex Inc
B5: 14-3-3ε FL D99K (natural protein, UniProt P62258 1-255, looked up)
chain: T1 sequence (looked up) with D99K
notes: 14-3-3ε full length with D99K; source: E. coli BL21 (DE3), purified (Ni Sepharose); mutant obtained from Mutagenex Inc
B6: 14-3-3ε FL S59E (natural protein, UniProt P62258 1-255, looked up)
chain: T1 sequence (looked up) with S59E
notes: 14-3-3ε full length with S59E; source: E. coli BL21 (DE3), purified (Ni Sepharose); mutant obtained from Mutagenex Inc
B7: 14-3-3ε FL K50E (natural protein, UniProt P62258 1-255, looked up)
chain: T1 sequence (looked up) with K50E
notes: 14-3-3ε full length with K50E; source: E. coli BL21 (DE3), purified (Ni Sepharose); mutant obtained from Mutagenex Inc
B8: 14-3-3ε FL E92K (natural protein, UniProt P62258 1-255, looked up)
chain: T1 sequence (looked up) with E92K
notes: 14-3-3ε full length with E92K; source: E. coli BL21 (DE3), purified (Ni Sepharose); mutant obtained from Mutagenex Inc
B9: 14-3-3ε C-terminal peptide (14-3-3ε_(234-255)) (peptide, UniProt P62258 234-255, looked up)
peptide: DMQGDGEEQNKEALQDVEDENQ
notes: 14-3-3ε, C-terminal tail, residues 234-255; also called non-acetylated peptide; C-terminal tail of 14-3-3ε; source: bought: Genosphere Biotechnologies (France)
B10: acetylated 14-3-3ε_(234-255) peptide (peptide, UniProt P62258 234-255, looked up)
peptide: Ac-DMQGDGEEQNKEALQDVEDENQ
notes: 14-3-3ε, C-terminal tail, residues 234-255, N-terminally acetylated; also called acetylated peptide

What was measured:
[1] = molecular target: B2; experiment: NMR titration; 1D 19F NMR of the fluorinated 14-3-3ε_(234-255) peptide titrated with Cc or BSA; 25 °C; 600 MHz; 10 mM sodium phosphate pH 6.3; conditions: both partners purified
14-3-3ε FL K50E = molecular target: B7; experiment: ITC; Auto-ITC200, 25 °C; 2-μL injections of 300 μM Cc into the cell with 20 μM 14-3-3ε species or peptide; 10 mM sodium phosphate pH 7.4; conditions: both partners purified
14-3-3ε FL E92K = molecular target: B8; experiment: as above; conditions: both partners purified
14-3-3ε FL S59E = molecular target: B6; experiment: as above; conditions: both partners purified
[2] = molecular target: T1, 14-3-3ε full length (14-3-3ε FL), …; experiment: as above; conditions: both partners purified
14-3-3ε FL D21K = molecular target: B3; experiment: as above; conditions: both partners purified
14-3-3ε FL S187D = molecular target: B4; experiment: as above; conditions: both partners purified
[3] = molecular target: B9; experiment: as above; conditions: both partners purified
14-3-3ε FL D99K = molecular target: B5; experiment: as above; conditions: both partners purified
[4] = molecular target: the molecule itself; experiment: AUC + other: dynamic light scattering; sedimentation velocity, 20 °C, 45,000 r.p.m., 37 μM, 5 mM sodium phosphate pH 6.3; DLS at 0.1 mg/mL, 25 °C, same buffer
[5] = molecular target: B2; experiment: ITC; Auto-ITC200, 25 °C; 2-μL injections of 300 μM Cc into the cell with 20 μM 14-3-3ε species or peptide; 10 mM sodium phosphate pH 7.4; conditions: both partners purified
[6] = molecular target: B2; experiment: NMR titration; 50 μM reduced 15N-labelled Cc titrated with unlabeled 14-3-3ε FL (700 MHz) or 14-3-3ε_(234-255) peptide (600 MHz); 1D 1H and 2D [1H,15N] HSQC; 25 °C; 5 mM sodium phosphate pH 6.3, 0.1 M sodium ascorbate; CSP curves fitted with a one-site model; conditions: both partners purified

## B1
[1]
  binding result: binds

## B2
14-3-3ε FL K50E
  stoichiometry N: 1
14-3-3ε FL E92K
  stoichiometry N: 1
14-3-3ε FL S59E
  stoichiometry N: 1
[2]
  Kd: 2.3 µM
  stoichiometry N: 2 Cc per 14-3-3ε FL homodimer
14-3-3ε FL D21K
  stoichiometry N: 1
14-3-3ε FL S187D
  binding result: binds
[3]
  stoichiometry N: 1
14-3-3ε FL D99K
  binding result: binds

## B3
[4]
  stoichiometry N: 2

## B4
[4]
  stoichiometry N: 2

## B5
[4]
  stoichiometry N: 2

## B6
[4]
  stoichiometry N: 2

## B7
[4]
  stoichiometry N: 2

## B8
[4]
  stoichiometry N: 2

## B9
[5]
  Kd: 16 µM
[6]
  Kd: 49 µM

## B10
[5]
  binding result: binds
